Experimental data taken from article PMC10465942, “N-acetylmuramic acid recognition by MurK kinase from the MurNAc auxotrophic oral pathogen Tannerella forsythia” (The Journal of Biological Chemistry, 2023).

How the values were obtained:
[1] = molecular target: K1058, paralogous MurNAc kinase of Tannerella forsythia (Tannerella forsythia); experiment: SEC; SD200 16/60 column, 4 °C; MurK in 200 mM NaCl, 50 mM MES, pH 6; K1058 in 750 mM NaCl, 25 mM Tris-HCl, pH 8.5; apparent mass about 60 kDa against 32.4 and 32.3 kDa for the monomers
[2] = molecular target: Tannerella forsythia ATP-dependent murein sugar kinase (MurK) (Tannerella forsythia); experiment: as above

stoichiometry N [1] | stoichiometry N [2] | Substance
2 |  | K1058, paralogous MurNAc kinase of Tannerella forsythia (enzyme)
 | 2 | Tannerella forsythia ATP-dependent murein sugar kinase (MurK) (enzyme)
